{"source": "patent US20030158083A1", "about": "“Method of effecting angiogenesis by modulating the function of a novel endothelia phosphatase” (The Procter & Gamble Company, priority 2002, published 2003)", "molecules": {"B1": {"name": "GST Tie2 wild-type (GST fusion of the intracellular domain of human Tie2/TEK) (receptor, UniProt Q02763 770-1124, looked up)", "chain": "LQLKRANVQRRMAQAFQNVREEPAVQFNSGTLALNRKVKNNPDPTIYPVLDWNDIKFQDVIGEGNFGQVLKARIKKDGLRMDAAIKRMKEYASKDDHRDFAGELEVLCKLGHHPNIINLLGACEHRGYLYLAIEYAPHGNLLDFLRKSRVLETDPAFAIANSTASTLSSQQLLHFAADVARGMDYLSQKQFIHRDLAARNILVGENYVAKIADFGLSRGQEVYVKKTMGRLPVRWMAIESLNYSVYTTNSDVWSYGVLLWEIVSLGGTPYCGMTCAELYEKLPQGYRLEKPLNCDDEVYDLMRQCWREKPYERPSFAQILVSLNRMLEERKTYVNTTLYEKFTYAGIDCSAEEAA", "modifications": "some degree of tyrosine phosphorylation after in vitro autophosphorylation; sites not listed", "notes": "domain: intracellular domain; also called Tie2 kinase; not shown: glutathione S-transferase (GST) encoded by the pAcGHLT baculovirus transfer vector (Pharmingen); in-frame fusion, linker"}, "B2": {"name": "KAPh phosphatase domain: purified, recombinant KAPh phosphatase domain (amino acids 83-464 SEQ ID NO 4) (protein, listed as Homo sapiens)", "chain": "LNHSKQRSTLPRSFSLDPLMERRWDLDLTYVTERILAAAFPARPDEQRHRGHLRELAHVLQSKHRDKYLLFNLSEKRHDLTRLNPKVQDFGWPELHAPPLDKLCSICKAMETWLSADPQHVVVLYCKGNKGKLGVIVSAYMHYSKISAGADQALATLTMRKFCEDKVATELQPSQRRYISYFSGLLSGSIRMNSSPLFLHYVLIPMLPAFEPGTGFQPFLKIYQSMQLVYTSGVYHIAGPGPQQLCISLEPALLLKGDVMVTCYHKGGRGTDRTLVFRVQFHTCTIHGPQLTFPKDQLDEAWTDERFPFQASVEFVFSSSPEKIKGSTPRNDPSVSVDYNTTEPAVRWDSYENFNQHHEDSVDGSLTHTRGPLDGSPYAQVQ"}, "B3": {"name": "GST Tie1 wild-type (GST fusion of the intracellular domain of human Tie1) (receptor, UniProt P35590 785-1138, looked up)", "chain": "CIRRSCLHRRRTFTYQSGSGEETILQFSSGTLTLTRRPKLQPEPLSYPVLEWEDITFEDLIGEGNFGQVIRAMIKKDGLKMNAAIKMLKEYASENDHRDFAGELEVLCKLGHHPNIINLLGACKNRGYLYIAIEYAPYGNLLDFLRKSRVLETDPAFAREHGTASTLSSRQLLRFASDAANGMQYLSEKQFIHRDLAARNVLVGENLASKIADFGLSRGEEVYVKKTMGRLPVRWMAIESLNYSVYTTKSDVWSFGVLLWEIVSLGGTPYCGMTCAELYEKLPQGYRMEQPRNCDDEVYELMRQCWRDRPYERPPFAQIALQLGRMLEARKAYVNMSLFENFTYAGIDATAEEA", "modifications": "some degree of tyrosine phosphorylation after in vitro autophosphorylation; sites not listed", "notes": "domain: intracellular domain; also called Tie1 kinase; not shown: glutathione S-transferase (GST) encoded by the pAcGHLT baculovirus transfer vector (Pharmingen); in-frame fusion, linker"}, "B4": {"name": "6xHis-tagged KAPh SH2 domain (expressed in HEK 293 cells from pcDNA4/HisMax) (other, not shown: small tags and cut ends)", "chain": "WYKPHLSRDQAIALLKDKDPGAFLIRDSHSFQGAYGLALKVATPPPSAQPWKGDPVEQLVRHFLIETGPKGVKIKGCPSEPYFGSLSALVSQHSISPISLPCCLRILS", "notes": "Used as HEK 293 cell lysate; also called hexahistidine-tagged KAPh SH2 domain; KAPh SH2 domain-containing protein fragment"}}, "key": {"[1]": {"test": "Peptide phosphatase assay (BIOMOL green)", "format": "biochemical", "details": "any peptide substrates examined; data not shown"}, "[2]": {"test": "Phosphatase activity with fluorogenic substrate DiFMUP", "format": "biochemical", "procedure": "Purified, recombinant KAPh phosphatase domain (amino acids 83-464 SEQ ID NO 4) (100 μg/mL) and full-length PTEN (amino acids 1-403) (100 μg/mL) were each mixed with a fluorogenic phosphatase substrate 6,8-difluoro-4-methylumbelliferyl phosphate (DiFMUP) (Molecular Probes, Eugene, Oreg.) at a final concentration of a 100 μM in assay buffer (10 mM sodium acetate, pH 6.0, 150 mM NaCl, 5 mM DTT). Following incubation at ambient temperature for 15 or 60 min., the fluorescence intensity of the 6,8-difluoro-4-methylumbelliferone (DiFMU) product was measured in triplicate and used as an assessment of phosphatase activity. A Victor 5 microplate reader from Wallac (Turku, Finland) was used to read the fluorescence intensity from 384-well microplates (Corning Inc., Corning, N.Y.)."}, "[3]": {"target": "T1, 6xHis-tagged KAPh full-length protein (expressed in HEK 293 cells from pcDNA4/HisMax) (Homo sapiens, UniProt Q63HR2 26-1409, limits assumed)", "T1 construct": "Used as HEK 293 cell lysate; also called full-length KAPh; hexahistidine-tagged full-length KAPh", "T1 sequence": "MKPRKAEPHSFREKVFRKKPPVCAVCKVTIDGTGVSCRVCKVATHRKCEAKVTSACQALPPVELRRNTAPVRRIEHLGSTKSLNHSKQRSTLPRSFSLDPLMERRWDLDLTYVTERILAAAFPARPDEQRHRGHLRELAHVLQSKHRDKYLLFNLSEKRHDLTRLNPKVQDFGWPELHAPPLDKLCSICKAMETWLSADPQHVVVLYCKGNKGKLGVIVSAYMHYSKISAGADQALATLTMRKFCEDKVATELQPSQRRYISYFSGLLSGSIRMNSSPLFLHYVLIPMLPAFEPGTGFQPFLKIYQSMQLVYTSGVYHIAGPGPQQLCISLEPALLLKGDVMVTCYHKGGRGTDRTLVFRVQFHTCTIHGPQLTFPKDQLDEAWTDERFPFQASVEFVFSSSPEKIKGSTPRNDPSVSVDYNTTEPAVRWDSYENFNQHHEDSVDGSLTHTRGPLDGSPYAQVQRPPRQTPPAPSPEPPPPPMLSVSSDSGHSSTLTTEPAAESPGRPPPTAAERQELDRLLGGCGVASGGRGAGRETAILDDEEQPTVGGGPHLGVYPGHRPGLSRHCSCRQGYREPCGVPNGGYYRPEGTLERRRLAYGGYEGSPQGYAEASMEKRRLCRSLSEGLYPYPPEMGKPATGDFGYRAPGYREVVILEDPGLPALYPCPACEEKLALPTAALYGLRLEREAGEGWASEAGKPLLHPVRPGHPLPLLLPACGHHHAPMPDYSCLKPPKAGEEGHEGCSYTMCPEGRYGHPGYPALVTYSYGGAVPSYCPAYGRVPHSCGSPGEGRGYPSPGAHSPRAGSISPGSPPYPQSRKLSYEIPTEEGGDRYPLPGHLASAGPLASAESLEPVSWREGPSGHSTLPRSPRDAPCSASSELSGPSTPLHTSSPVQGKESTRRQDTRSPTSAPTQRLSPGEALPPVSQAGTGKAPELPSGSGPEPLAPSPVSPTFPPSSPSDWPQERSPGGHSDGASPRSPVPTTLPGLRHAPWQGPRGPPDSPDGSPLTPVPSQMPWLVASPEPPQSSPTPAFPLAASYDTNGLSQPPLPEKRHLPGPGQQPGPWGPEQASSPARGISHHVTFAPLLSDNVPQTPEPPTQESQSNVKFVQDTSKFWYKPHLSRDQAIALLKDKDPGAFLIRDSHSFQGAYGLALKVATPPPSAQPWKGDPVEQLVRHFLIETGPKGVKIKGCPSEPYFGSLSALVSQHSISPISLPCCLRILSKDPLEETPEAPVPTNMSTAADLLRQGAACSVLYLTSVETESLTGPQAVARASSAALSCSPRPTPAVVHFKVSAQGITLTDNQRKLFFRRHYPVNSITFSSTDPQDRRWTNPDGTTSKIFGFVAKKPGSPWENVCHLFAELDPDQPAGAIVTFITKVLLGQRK", "test": "GST pull-down from HEK 293 lysate, anti-HisG blot"}, "[4]": {"target": "T2, GST (baculovirus-expressed glutathione S-transferase alone) (UniProt P08515 1-218 = GST)", "T2 construct": "Control; also called GST alone", "T2 sequence (P08515 whole entry)": "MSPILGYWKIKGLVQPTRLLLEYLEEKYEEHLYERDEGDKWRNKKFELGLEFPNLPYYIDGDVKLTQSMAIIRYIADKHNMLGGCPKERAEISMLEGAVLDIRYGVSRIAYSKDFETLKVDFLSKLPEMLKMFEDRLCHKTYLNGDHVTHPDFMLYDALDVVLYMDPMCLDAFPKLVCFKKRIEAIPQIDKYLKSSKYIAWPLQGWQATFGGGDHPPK", "test": "GST pull-down from HEK 293 lysate, anti-HisG blot"}}}
{"molecule": "PTEN: full-length PTEN (amino acids 1-403), tumor suppressor with phosphatase activity, used as comparator [reference compound]", "values": [{"measurement": "phosphatase activity using peptide substrates", "setting": "[1]", "value": "unable to detect significant, reproducible phosphatase activity"}, {"measurement": "fluorescent product (DiFMU) generated, fold over buffer control", "setting": "[2]; 100 μg/mL protein, 100 μM DiFMUP, pH 6.0, ambient temperature, 60 min incubation", "value": 6, "unit": "fold"}]}
{"molecule": "B1", "values": [{"measurement": "binding result", "setting": "[3]", "value": "no binding"}]}
{"molecule": "B2", "values": [{"measurement": "phosphatase activity over time", "setting": "[2]; 15 or 60 min incubation with DiFMUP", "value": "time-dependent increase in phosphatase activity"}]}
{"molecule": "B3", "values": [{"measurement": "binding result", "setting": "[3]", "value": "no binding"}]}
{"molecule": "B4", "values": [{"measurement": "binding result", "setting": "[4]", "value": "no binding"}]}
